The text below walks through data of paper PMC6201368.

B1: SCN1Bβ/WT (Navβ1b, sodium channel beta1b subunit) [human] / Kv4.3 (KCND3/WT) [human] (parent)
chain 1: GGCVEVDSETEAVYGMTFKILCISCKRRSETNAETFTEWTFRQKGTEEFVKILRYENEVLQLEEDERFEGRVVWNGSRGTKDLQDLSIFITNVTYNHSGDYECHVYRLLFFENYEHNTSVVKKIHIEVVDKGESGAACPFTVTHRRARWRDRWQAVDRTGWLCAWPANRPQQRAEGEGSSPSCPLQLWPLFLSSPRRGQSMPVPHRRSGYRTQLCHLCCMTSGRCLLSLSQRVVLGLPGIIIRCVSRGVV
chain 2: MAAGVAAWLPFARAAAIGWMPVANCPMPLAPADKNKRQDELIVLNVSGRRFQTWRTTLERYPDTLLGSTEKEFFFNEDTKEYFFDRDPEVFRCVLNFYRTGKLHYPRYECISAYDDELAFYGILPEIIGDCCYEEYKDRKRENAERLMDDNDSENNQESMPSLSFRQTMWRAFENPHTSTLALVFYYVTGFFIAVSVITNVVETVPCGTVPGSKELPCGERYSVAFFCLDTACVMIFTVEYLLRLFAAPSRYRFIRSVMSIIDVVAIMPYYIGLVMTNNEDVSGAFVTLRVFRVFRIFKFSRHSQGLRILGYTLKSCASELGFLLFSLTMAIIIFATVMFYAEKGSSASKFTSIPASFWYTIVTMTTLGYGDMVPKTIAGKIFGSICSLSGVLVIALPVPVIVSNFSRIYHQNQRADKRRAQKKARLARIRVAKTGSSNAYLHSKRNGLLNEALELTGTPEEEHMGKTTSLIESQHHHLLHCLEKTTGLSYLVDDPLLSVRTSTIKNHEFIDEQMFEQNCMESSMQNYPSTRSPSLSSHPGLTTTCCSRRSKKTTHLPNSNLPATRLRSMQELSTIHIQGSEQPSLTTSRSSLNLKADDGLRPNCKTSQITTAIISIPTPPALTPEGESRPPPASPGPNTNIPSIASNVVKVSAL

The variants in the assay derive from B1. Nature of the assay: co-immunoprecipitation (IP anti-KCND3, immunoblot anti-SCN1Bβ), band quantification. The conditions noted are these: with Kv4.3 (KCND3/WT) [human]; HEK293 cells co-transfected with KCND3/WT and SCN1Bβ; parent: 1; read off a plot. Background: In western blotting, separated proteins are transferred to a membrane and probed.
For chain 1 R232T, the ratio to parent was found to be 1.2.

Turning to chain 1 S230R, the ratio to parent turned out to be 1.
